Measured values: patent publication US12551583B2, “Radiolabeled ligands for targeted PET/SPECT imaging and methods of their use” (MEMORIAL SLOAN KETTERING CANCER CENTER, priority 2016, dated 2026)

Legend:
[1] = in vivo; details: female, BALB/c, mouse, iv, total radioactivity; for tissue uptake at 24 h: 4T1 tumoral uptake; for tissue uptake at 4 h: biodistribution, Tumor (4T1 tumoral uptake)
Procedure: (§1) 4T1 orthotopic BALB/c mouse model. The cells were removed from the flasks, concentrated, and resuspended in minimal media for cell counting. The cells were then diluted to contain approximately 1 million cells in 30 μL of media (for orthotopic allografts). Following an MSKCC Institutional Animal Care and Use Committee approved protocol, 8-10 week old BALB/c mice (Charles River Laboratories, Wilmington, MA) were surgically implanted with one million 4T1 cancer cells into the first or the last mammary fat pad of the right side of the animal using aseptic surgical techniques and sterile staple closures while the mice were under anesthetic. Additionally, mice were given injections of meloxicam (24 h pain killer) in the scruff and bupivacaine intradermally prior to surgical incisions. One day post surgery, the mice were again given meloxicam and checked to ensure that the closure was healing. Two and three days post surgery, the mice were checked to ensure that the animals were healthy and recovering well from the surgery. Five to seven days post surgery, the staples were removed. Five to nine days post surgery, the mice were injected with 50-75 μCi (0.9-0.4 nmol) of the respective radiopharmaceutical for in vivo biodistribution or 500-600 μCi (9-11 nmol) for in vivo imaging. The mice receiving ^64Cu-NOTA-pHLIP were sacrificed at 1, 2, 4, 12, 24, 36, and 48 h; the mice receiving [^18F]—AlF-NOTA-pHLIP were sacrificed at 0.5, 1, 2, 4, 6 and 8 h. The 4T1 tumors in this study were purposely used 5-9 days after inoculation to ensure lower tumoral pH. Animal models. Animal studies were conducted according to MSKCC IACUC-approved animal protocol. 4T1 (orthotopic breast cancer allografts of 1×10^6 cells surgically implanted in the mammary fat pad) and B16-F10 (orthotopic melanoma allografts of 1×10^5 cells injected intradermally on the shoulder) tumors were orthotopically inoculated in media in female BALB/c and C57Bl/6 mice (Charles River Laboratories (CRL)), respectively. Additionally, PC3 (3×10^6 cells) or LNCaP (3-6×10^6 cells) tumors were subcutaneously xenografted on the shoulder of athymic nude male mice (CRL). Mice were used once tumor volumes were approximately 90-300 mm^3. In vivo animal PET imaging and biodistribution. Mice were injected with radiolabeled NOTA-pHLIP derivatives i.v. (500-700 μCi/mouse for PET or SPECT imaging studies and 25-100 μCi/mouse for biodistribution studies). All injections were less than 200 μL with <10% EtOH in sterile PBS. PET images were obtained with the mice under anesthesia in an Inveon PET-CT or microPET Focus 120 (Siemens) at 0.5-48 h p.i. All images were analyzed using ASIPro VM (Concorde Microsystems). SPECT images were obtained with the mice under anesthesia in a NanoSPECT/CT Plus at 4-24 h p.i. All SPECT images were reconstructed using HiSPECT and analyzed using InVivoScope. Dissections for ex vivo biodistribution were performed on mice after CO2 asphyxiation or cervical dislocation while anesthetized at reported time points. Weight of the syringe prior to injection and after injection was used to determine the mass of injectate. Activity of the syringe prior to injection and after injection was used to determine the percent of injectate administered. The mass injected was corrected by the percent of radioactivity injected. Four to five aliquots (10 μL) were weighed and counted as internal standards for each study. All of the collected organs were counted using an automatic gamma counter (Wizard 3″, PerkinElmer, Waltham, MA). The total injected dose was found as the mass injected dose×fraction radioactivity injected×internal standard average counts/g. The percent injected dose (% ID) was determined as the counts for the tissue×100/total injected dose. The % ID/g was calculated as the % ID/tissue weight. The average and standard deviation of the % ID and % ID/g was determined using normal methods (n−1) for each set of mice.

[2] = system: 4T1 orthotopic tumor-bearing BALB/c mice; assay: in vivo; details: female, BALB/c, mouse, iv; for biodistribution, Tumor (4T1 tumoral uptake): 4 h
Procedure: as §1

**Q.** For `CC(C)C[C@@H](NC(=O)[C@@H](Cc1ccc(O)cc1)NC(=O)[C@@H](C)NC(=O)[C@@H](CCCNC(=N)N)NC(=O)[C@@H](Cc1c[nH]c2ccccc12)NC(=O)[C@H]1CCCN1C(=O)[C@@H](CC(N)=O)NC(=O)[C@@H](CCC(N)=O)NC(=O)[C@@H](CC(=O)O)NC(=O)[C@@H](CC(=O)O)NC(=O)[C@@H](C)N)C(=O)N[C@H](CC(=O)O)C(=O)N[C@H](CC(C)C)C(=O)N[C@H](CC(C)C)C(=O)N[C@H](Cc1ccccc1)C(=O)N1CCC[C@@H]1C(=O)N[C@@H](C(=O)N[C@H](CC(=O)O)C(=O)N[C@@H](C(=O)N[C@H](CC(C)C)C(=O)N[C@H](CC(C)C)C(=O)N[C@H](CC(C)C)C(=O)N[C@H](CC(=O)O)C(=O)N[C@H](CC(C)C)C(=O)N[C@H](CC(C)C)C(=O)N[C@H](Cc1c[nH]c2ccccc12)C(=O)N[C@H](CSC1CC(=O)N(CCNC(=O)CN2CCN(CC(=O)O)CCN(CC(=O)O)CC2)C1=O)C(=O)NCC(=O)O)[C@H](C)O)[C@H](C)O` (some centres unmarked) [^67Ga-NO2A-C^27Var3, metal not drawn], which tissue uptake at 24 h ([1]; 50 uCi) is on record?
**A.** 23 ± 5 %ID/g

**Q.** What about the tissue uptake at 4 h [1] of the same compound?
**A.** 20.5 ± 1 %ID/g

**Q.** Which 4T1 tumoral uptake ([2]; 50 uCi, 24 h) does the source give for `CC(C)C[C@@H](NC(=O)[C@@H](CC(C)C)NC(=O)[C@@H](CC(=O)O)NC(=O)[C@@H](CC(C)C)NC(=O)[C@@H](CC(C)C)NC(=O)[C@@H](CC(C)C)NC(=O)[C@H](NC(=O)[C@@H](CC(=O)O)NC(=O)[C@H](NC(=O)[C@H]1CCCN1C(=O)[C@@H](Cc1ccccc1)NC(=O)[C@@H](CC(C)C)NC(=O)[C@@H](CC(C)C)NC(=O)[C@@H](CC(=O)O)NC(=O)[C@@H](CC(C)C)NC(=O)[C@@H](Cc1ccc(O)cc1)NC(=O)[C@@H](C)NC(=O)[C@@H](CCCNC(=N)N)NC(=O)[C@@H](Cc1c[nH]c2ccccc12)NC(=O)[C@H]1CCCN1C(=O)[C@@H](CC(N)=O)NC(=O)[C@@H](CCC(N)=O)NC(=O)[C@@H](CC(=O)O)NC(=O)[C@@H](CC(=O)O)NC(=O)[C@@H](CSC1CC(=O)N(CCNC(=O)CN2CCN(CC(=O)O)CCN(CC(=O)O)CC2)C1=O)NC(=O)[C@@H](C)N)[C@H](C)O)[C@H](C)O)C(=O)N[C@H](Cc1c[nH]c2ccccc12)C(=O)O` (single isomer, unassigned) [^67Ga-NO2A-cysVar3, metal not drawn] here?
**A.** 26±4 % ID/g

**Q.** And the “biodistribution, Tumor (4T1 tumoral uptake)” value [2]?
**A.** 12±3 % ID/g

**Q.** What about the tissue uptake at 24 h ([1]; 500 uCi) of the same compound?
**A.** 34 ± 3 %ID/g

**Q.** With `CC(C)C[C@@H](NC(=O)[C@@H](CC(C)C)NC(=O)[C@@H](CC(=O)O)NC(=O)[C@@H](CC(C)C)NC(=O)[C@@H](CC(C)C)NC(=O)[C@@H](CC(C)C)NC(=O)[C@H](NC(=O)[C@@H](CC(=O)O)NC(=O)[C@H](NC(=O)[C@H]1CCCN1C(=O)[C@@H](Cc1ccccc1)NC(=O)[C@@H](CC(C)C)NC(=O)[C@@H](CC(C)C)NC(=O)[C@@H](CC(=O)O)NC(=O)[C@@H](CC(C)C)NC(=O)[C@@H](Cc1ccc(O)cc1)NC(=O)[C@@H](C)NC(=O)[C@@H](CCCNC(=N)N)NC(=O)[C@@H](Cc1c[nH]c2ccccc12)NC(=O)[C@H]1CCCN1C(=O)[C@@H](CC(N)=O)NC(=O)[C@@H](CCC(N)=O)NC(=O)[C@@H](CC(=O)O)NC(=O)[C@@H](CC(=O)O)NC(=O)[C@@H](CS)NC(=O)[C@@H](C)NC(=S)Nc1ccc(CC2CN(CC(=O)O)CCN(CC(=O)O)CCN2CC(=O)O)cc1)[C@H](C)O)[C@H](C)O)C(=O)N[C@H](Cc1c[nH]c2ccccc12)C(=O)O` (single isomer, unassigned) [^67Ga-NOTA-Var3, metal not drawn] as the compound, how does the tissue uptake at 24 h ([1]; 50 uCi) read?
**A.** 2.93 ± 0.11 %ID/g

**Q.** What about the tissue uptake at 4 h [1] of the same compound?
**A.** 2.05 ± 0.17 %ID/g

**Q.** Which “biodistribution, Tumor (4T1 tumoral uptake)” value [2] does the source give for `CC(C)C[C@@H](NC(=O)[C@@H](CC(C)C)NC(=O)[C@@H](CC(=O)O)NC(=O)[C@@H](CC(C)C)NC(=O)[C@@H](CC(C)C)NC(=O)[C@@H](CC(C)C)NC(=O)[C@H](NC(=O)[C@@H](CC(=O)O)NC(=O)[C@H](NC(=O)[C@H]1CCCN1C(=O)[C@@H](Cc1ccccc1)NC(=O)[C@@H](CC(C)C)NC(=O)[C@@H](CC(C)C)NC(=O)[C@@H](CC(=O)O)NC(=O)[C@@H](CC(C)C)NC(=O)[C@@H](Cc1ccc(O)cc1)NC(=O)[C@@H](C)NC(=O)[C@@H](CCCNC(=N)N)NC(=O)[C@@H](Cc1c[nH]c2ccccc12)NC(=O)[C@H]1CCCN1C(=O)[C@@H](CC(N)=O)NC(=O)[C@@H](CCC(N)=O)NC(=O)[C@@H](CC(=O)O)NC(=O)[C@@H](CC(=O)O)NC(=O)[C@@H](CSC1CC(=O)N(CCNC(=O)CN2CCN(CC(=O)O)CCN(CC(=O)O)CC2)C1=O)NC(=O)[C@@H](C)N)[C@H](C)O)[C@H](C)O)C(=O)N[C@H](Cc1c[nH]c2ccccc12)C(=O)O` (single isomer, unassigned) [^68Ga-NO2A-cysVar3, metal not drawn] here?
**A.** 6±2 % ID/g
